Test results as given in IntAct's records for PubMed 20890305.

Biological target: MAP3K11 (UniProt Q16584)
Sequence (Q16584 whole entry, looked up): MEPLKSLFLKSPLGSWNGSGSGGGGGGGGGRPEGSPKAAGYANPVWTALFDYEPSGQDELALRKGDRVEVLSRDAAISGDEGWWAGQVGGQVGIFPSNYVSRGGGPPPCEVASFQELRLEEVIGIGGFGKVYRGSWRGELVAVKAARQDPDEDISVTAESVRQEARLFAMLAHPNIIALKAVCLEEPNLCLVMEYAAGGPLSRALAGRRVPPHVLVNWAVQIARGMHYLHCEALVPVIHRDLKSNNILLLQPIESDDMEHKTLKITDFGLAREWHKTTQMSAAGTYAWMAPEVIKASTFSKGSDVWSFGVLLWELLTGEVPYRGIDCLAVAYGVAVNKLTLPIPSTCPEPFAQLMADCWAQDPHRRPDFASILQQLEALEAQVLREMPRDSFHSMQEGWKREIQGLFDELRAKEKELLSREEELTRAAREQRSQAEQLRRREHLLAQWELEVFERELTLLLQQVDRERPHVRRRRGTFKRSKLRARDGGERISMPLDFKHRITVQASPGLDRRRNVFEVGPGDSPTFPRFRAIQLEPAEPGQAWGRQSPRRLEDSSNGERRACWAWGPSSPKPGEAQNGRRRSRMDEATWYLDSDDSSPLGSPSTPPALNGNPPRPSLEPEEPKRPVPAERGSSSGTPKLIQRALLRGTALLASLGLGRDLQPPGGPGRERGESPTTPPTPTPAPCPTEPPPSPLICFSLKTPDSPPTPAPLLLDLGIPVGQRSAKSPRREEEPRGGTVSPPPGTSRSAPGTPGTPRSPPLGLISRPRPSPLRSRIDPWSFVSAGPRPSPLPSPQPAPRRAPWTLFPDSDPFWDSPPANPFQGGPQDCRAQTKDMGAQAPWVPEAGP

Cell division control protein 42 homolog (Homo sapiens), P60953 G12V, sequence (P60953 whole entry G12V): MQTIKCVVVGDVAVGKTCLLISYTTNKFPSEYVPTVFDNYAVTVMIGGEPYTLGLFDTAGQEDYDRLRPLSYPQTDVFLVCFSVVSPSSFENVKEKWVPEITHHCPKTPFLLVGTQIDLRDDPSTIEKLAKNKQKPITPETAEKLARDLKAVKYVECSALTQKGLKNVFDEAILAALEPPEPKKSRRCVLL
Cell division control protein 42 homolog (Homo sapiens), P60953 T17N, sequence (P60953 whole entry T17N): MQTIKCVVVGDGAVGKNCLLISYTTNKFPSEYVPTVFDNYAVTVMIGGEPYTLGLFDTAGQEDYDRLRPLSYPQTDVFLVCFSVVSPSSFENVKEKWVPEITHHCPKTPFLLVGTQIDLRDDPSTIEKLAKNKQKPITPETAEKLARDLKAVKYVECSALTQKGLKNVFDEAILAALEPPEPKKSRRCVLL

Row | Substance | effect of a mutation on the interaction
1 | Cell division control protein 42 homolog (Homo sapiens), P60953 G12V | decreasing interaction
2 | Cell division control protein 42 homolog (Homo sapiens), P60953 T17N | disrupting interaction
